Experimental data from FireProtDB (doi:10.1021/bi00369a002).
Several values for one entry are separate records, joined by “and”; a condition that tells them apart may be missing. Identical values can stand only once.

B1: Tryptophan synthase alpha chain, P0A877 (parent)
chain: MERYESLFAQLKERKEGAFVPFVTLGDPGIEQSLKIIDTLIEAGADALELGIPFSDPLADGPTIQNATLRAFAAGVTPAQCFEMLALIRQKHPTIPIGLLMYANLVFNKGIDEFYAQCEKVGVDSVLVADVPVEESAPFRQAALRHNVAPIFICPPNADDDLLRQIASYGRGYTYLLSRAGVTGAENRAALPLNHLVAKLKEYNAAPPLQGFGISAPDQVKAAIDAGAAGAISGSAIVKIIEQHINEPEKMLAALKVFVQPMKAATRS

Variants of: B1
Details: Escherichia coli (strain K12); pH 7.8; 25 °C; Urea; Absorbance; Potassium phosphate 10 mM; transition: 3; structure 1WQ5; whole UniProt chain shown

| Variant | ddG of mutation (higher = less stable) | denaturant m value | denaturant midpoint (higher = more stable) |
| --- | --- | --- | --- |
| Y175C G211E | 1.3 kcal/mol and 1 kcal/mol | 3 kcal/mol/M and 1.4 kcal/mol/M | 2.2 M and 3.49 M |
| G211E | – | 3 kcal/mol/M and 1.5 kcal/mol/M | 2.73 M and 3.72 M |
| Y175C | – | 3 kcal/mol/M and 1.1 kcal/mol/M | 2.58 M and 3.71 M |
